Data on 2 molecules can be found in patent publication US20070292347A1 (LONDON HEALTH SCIENCES CENTRE RESEARCH, published 2007).

Experiment [1] concerns the target T1, purified HLA-DRB1*0404 molecule (human).
T1 construct: Purified MHC class II molecule
Kind of experiment: peptide competition assay, displacement of radio-labelled peptide probe from purified MHC class II. From the text:
(§1) Results are expressed as the inverse of the IC₅₀ values measured in nM.

The target of experiment [2] is T2, purified HLA-DRB1*0401 molecule (human).
T2 construct: Purified MHC class II molecule
The description is as above.
Source text: as §1

Experiment [3] deals with T3, purified HLA-DRB1*0101 molecule (human).
T3 construct: Purified MHC class II molecule
The description is as above.
Source text: as §1

Experiment [4] deals with T4, purified HLA-DRB1*0802 molecule (human).
T4 construct: Purified MHC class II molecule
Kind of experiment: peptide competition assay on purified MHC class II.
Source text: as §1

The target of experiment [5] is T5, purified HLA-DRB1*1302 molecule (human).
T5 construct: Purified MHC class II molecule
Kind of experiment: peptide competition assay on purified MHC class II.
Source text: as §1

In experiment [6] the target is T6, purified HLA-DRB1*0301 molecule (human).
T6 construct: Purified MHC class II molecule
Kind of experiment: peptide competition assay on purified MHC class II.
Source text: as §1

Experiment [7] addresses T7, purified HLA-DRB1*1101 molecule (human).
T7 construct: Purified MHC class II molecule
Kind of experiment: peptide competition assay on purified MHC class II.
Source text: as §1

Square brackets hold non-standard residues; d marks the D form. Ends that are not written are not given here. Cit = NC(=O)NCCC[C@H](N)C(=O)O

B1: Vim R70Cit, altered human vimentin peptide 65-77 (peptide)
peptide: SAVRA[Cit]SSVPGVR
notes: Synthetic peptide; also called Vimentin R70Cit; citrulline containing vimentin peptide
On to B1, for which the “fold higher affinity compared to the unmodified peptide (Vim 65-77)” value in experiment [1] was 20 fold; in experiment [2], 90 fold; in experiment [3], 100 fold.

B2: Vim 65-77, human vimentin peptide 65-77 (peptide)
peptide: SAVRARSSVPGVR
notes: Synthetic peptide (Genemed Synthesis); also called Vimentin 65-77; unmodified vimentin peptide
Turning to B2, the binding result in experiment [4], in experiment [5], in experiment [6] and in experiment [7] was “binds” in each case.
